{"source": "paper PMC3392930", "about": "(The Journal of Cell Biology, 2012)", "key": {"[1]": {"target": "S-tagged RSP3_(1–160) (Chlamydomonas reinhardtii) (UniProt P12759)", "assay": "pull-down"}, "cross-linking [2]": {"target": "the molecule itself", "assay": "cross-linking"}, "cross-linking [3]": {"target": "the molecule itself", "assay": "cross-linking", "remark": "listed apart in the source"}}, "note": "Where two headings read alike, the source gives them in different places.", "data": [{"molecule": "His-tagged LC8 (natural protein)", "values": [{"measurement": "stoichiometry N (LC8 per RSP3 (1–160))", "setting": "[1]", "value": 3}]}, {"molecule": "RSP3_(1–170)-Cys (domain or fragment, Chlamydomonas reinhardtii, UniProt P12759 1-170, looked up) MVQAKAQQQLYTHAAEPKAVQQRRAKYREDETTQTLPTANIMFDRRVVRGNTYAARILPADATQTQTKGPSPASTKKRTTRTLPPRTPEAVDGRRHIDIQTDVYLEELTDTVPEADTSTQTDAFLDRPPTPLFVPQKTGTDAITQIENGDLFDFDFEVEPILEVLVGKVL", "values": [{"measurement": "stoichiometry N", "setting": "cross-linking [2]", "value": 2}]}, {"molecule": "RSP3_(1–170)-HAHis (domain or fragment, Chlamydomonas reinhardtii, UniProt P12759 1-170, looked up) MVQAKAQQQLYTHAAEPKAVQQRRAKYREDETTQTLPTANIMFDRRVVRGNTYAARILPADATQTQTKGPSPASTKKRTTRTLPPRTPEAVDGRRHIDIQTDVYLEELTDTVPEADTSTQTDAFLDRPPTPLFVPQKTGTDAITQIENGDLFDFDFEVEPILEVLVGKVL", "values": [{"measurement": "stoichiometry N", "setting": "cross-linking [3]", "value": 2}]}]}
